Test results as given in the supplement of paper PMC10126150.
± gives the standard deviation of the averaged measurements.

The sequences below were run on ATP (assay: switch fluorescence ratio, 500 uM ATP over buffer (Cy3 cluster intensity, sum of 5 cycles each) (fold (ratio)); higher = stronger signal-on switching upon ATP binding; sequences stand for … in TCGTCGGCAGCGTCAGATGTGTATAAGAGACAGTTTTTTTTTTTTTTTTTTTTTTTTT…TC). Conditions: aptamer strand: ATP DNA aptamer (quencher-CACCTGGGGGAGTATTGCGGAGGAAGG + anchor), 100 nM annealed; ATP concentration: 500 uM.
In short: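 After annealing to 100 nM quencher-labelled ATP aptamer, Cy3-labelled switching-strand clusters on a modified Illumina MiSeq flow-cell were imaged in selection buffer. A second image followed after 15 min with 500 uM ATP at 22 °C, and five such buffer/ATP cycles were done, each separated by NaOH stripping and re-annealing. The fluorescence ratio, averaged per switch-domain sequence, is summed target-cycle over summed buffer-cycle Cy3 intensity per cluster, with clusters outside 100-1000 RFU excluded.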
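Also: ATP exposure 15 min at 22 °C before imaging.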

In order of rising switch fluorescence ratio:
1. CAAAGTTAAC  0.949 ± 0.0098
2. CAATTCAGAT  0.952 ± 0.028
3. CAAGTAGGG  0.956 ± 0.052
4. CAAGTGCTTA  0.9578 ± 0.0081
5. CAAGTATATT  0.968 ± 0.032
6. CAATAGGGGC  0.969 ± 0.03
7. CAAAGTTAGG  0.97 ± 0.013
8. CAAGAATGTA  0.973 ± 0.024
9. CAAGGGCCAG  0.973 ± 0.07
10. CAAGTGGCAC  0.977 ± 0.022
11. CAATAAAAG  0.9766 ± 0.0071
12. CAAATTTTCT  0.978 ± 0.025
13. CAAGGTTGAG  0.979 ± 0.034
14. CAATAGGAGA  0.981 ± 0.028
15. CAAGTTTGGG  0.982 ± 0.019
16. CAAAGTAATT  0.983 ± 0.033
17. CAAGTATGAG  0.9829 ± 0.0065
18. CAAAATATGG  0.984 ± 0.051
19. CAAAGTTGCG  0.984 ± 0.017
20. CAAGTTTTTT  0.984 ± 0.016
21. CAATTAGGGA  0.985 ± 0.017
22. CACAACGGGA  0.985 ± 0.029
23. CAAACGTGGG  0.98611 ± 0.00012
24. CAAAGCGCTG  0.986 ± 0.012
25. CAATTTTAGG  0.987 ± 0.018
26. CAACTCAGTA  0.988 ± 0.016
27. CAATTATCGC  0.988 ± 0.028
28. CAATTGCGGG  0.988 ± 0.055
29. CAATCATAGT  0.989 ± 0.028
30. CAAATGTCAG  0.99 ± 0.028
31. CAAGGGGGGG  0.99 ± 0.034
32. CAAGGGTCCG  0.991 ± 0.045
33. CAAGGGTTGT  0.992 ± 0.0024
34. CAAATTTGGT  0.993 ± 0.032
35. CAAAGGGGAT  0.99484 ± 0.00073
36. CAAGGGGGA  0.995 ± 0.02
37. CAAGGGGGTA  0.995 ± 0.037
38. CAAATATTTT  0.996 ± 0.017
39. CAAGTATCAT  0.996 ± 0.076
40. CAATAGAGAG  0.997 ± 0.024
41. CACAGTGAGT  0.997 ± 0.021
42. CAAAGGCAGG  1.004 ± 0.0065
43. CAACTATTTG  1 ± 0.013
44. CAAGAAATTA  1 ± 0.011
45. CAAGATATAT  1 ± 0.016
46. CAAGGCTCAA  1 ± 0.0013
47. CAATGTTGAG  1 ± 0.032
48. CAAAGAACTT  1.01 ± 0.018
49. CAAATAAAGG  1.01 ± 0.025
50. CAAATACGTT  1.01 ± 0.029
51. CAAGACTTCG  1.01 ± 0.052
52. CAATCATGG  1.01 ± 0.019
53. CAATGGTGGT  1.01 ± 0.028
54. CAATGTGAGG  1.01 ± 0.0063
55. CAATGTGGGA  1.01 ± 0.021
56. CAATGTGTTT  1.01 ± 0.035
57. CAATGTTGAT  1.01 ± 0.026
58. CAATTGCTGT  1.01 ± 0.012
59. CAATTTAATA  1.01 ± 0.019
60. CAATTTCGTT  1.01 ± 0.021
61. CAAAGGAAGC  1.02 ± 0.05
62. CAAGATTCCA  1.016 ± 0.0077
63. CAAGTGACTT  1.02 ± 0.016
64. CAAGTTAAGG  1.02 ± 0.013
65. CAATATTATG  1.02 ± 0.02
66. CAATCTTCGT  1.02 ± 0.021
67. CAATGAAATC  1.02 ± 0.027
68. CAATGGGGGG  1.02 ± 0.03
69. CAATTCATTA  1.02 ± 0.02
70. CAAATTATGG  1.03 ± 0.01
71. CAACGGGTTC  1.03 ± 0.024
72. CAAGCGACGG  1.03 ± 0.022
73. CAAGTAGTGG  1.03 ± 0.011
74. CAATACTTG  1.027 ± 0.0074
75. CAATGGAAGG  1.03 ± 0.025
76. CAATGGTCCA  1.03 ± 0.024
77. CACAGGAGGG  1.03 ± 0.019
78. CACAGTGGTA  1.03 ± 0.058
79. CAAAAGTCGA  1.04 ± 0.031
80. CAAAGTTTCG  1.04 ± 0.0012
81. CAAATACCTG  1.04 ± 0.019
82. CAACTATTGC  1.04 ± 0.036
83. CAAGAGGGAC  1.04 ± 0.13
84. CACAGGGCGG  1.04 ± 0.017
85. CACATCATAT  1.04 ± 0.039
86. CAACCTGCAG  1.06 ± 0.012
87. CAAGACCACT  1.06 ± 0.045
88. CAATCAACCG  1.064 ± 0.0015
89. CAATAAAGCT  1.07 ± 0.041
90. CACACAGTAT  1.0721 ± 0.00011
91. CAAAATTCCG  1.08 ± 0.017
92. CAATGAGGTG  1.08 ± 0.036
93. CAAAGCATCT  1.09 ± 0.011
94. CAAAGTACGT  1.18 ± 0.043
95. CACACGTTAT  1.19 ± 0.019
96. CACAAGCGAT  1.42 ± 0.063
97. CAAGCGATGG  1.63 ± 0.065
98. CAACCGTGAA  1.91 ± 0.92
99. CAATACTCAA  2.14 ± 0.023
100. CAACGCCTCC  3.52 ± 0.082
